B1: GCSF: cognate cytokine of the G-CSF receptor, used at 0.1 μg/ml (protein)
chain: TPLGPASSLPQSFLLKCLEQVRKIQGDGAALQEKLCATYKLCHPEELVLLGHSLGIPWAPLSSCPSQALQLAGCLSQLHSGLFLYQGLLQALEGISPELGPTLDTLQLDVADFATTIWQQMEELGMAPALQPTQGAMPAFASAFQRRAGGVLVASHLQSFLEVSYRVLRHLAQP

What was measured:
T cells expressing TPOR = experiment: Stimulation of T cells expressing TPOR for 7 days; cell number and percent transgenic cells by flow cytometry; format: cell-based, human; settings: 0.1 μg/ml; for TPOR fraction after addition of agonist: enriched from 12.9% without addition
Method: (§1) FIG. 12: T cells transduced to express (i) the thrombopoietin receptor (TPOR) or (ii) the GCF receptor with a deletion at aa 715 (GCSFRd715) are active and can drive T cell proliferation via the non-canonical JAK2 pathway. T cells expressing GCSFRd715, TPOR, or the truncated NGFR as a control were stimulated for 7 days with IL-2/IL-7/IL-15 (all at 5 ng/ml; denoted as CK; positive control condition), 0.1 μg/ml recombinant thrombopoietin (TPO), 0.1 μg/ml TPO agonist eltrombopag (EP), or 0.1 μg/ml GCSF. Cell number (top) or percent transgenic cells (bottom) were quantified using flow cytometry at 7 days.
(§2) FIG. 13: Exemplary flow cytometry plots showing that exposure of transgenic cytokine receptor transduced cells to the cognate cytokine (i.e. GCSFRd715 to GCSF; TPOR to TPO or EP) leads to enrichment of CAR expressing cells at 7 days. Addition of GCSF enriched the GCSRFd715 transgenic cell fraction from 15.6% to 64.9% (top panel). Addition of TPO enriched the TPOR fraction from 12.9% to 82% and addition of EP enriched the TPOR fraction from 12.9% to 55.9% (bottom panel).
(§3) Healthy donor T cells were transduced to express (i) the thrombopoietin receptor (TPOR) or (ii) the GCF receptor with a deletion at aa 715 (GCSFRd715). T cells expressing GCSFRd715, TPOR, or the truncated NGFR as a control were stimulated for 7 days with IL-2/IL-7/IL-15 (all at 5 ng/ml; denoted as CK; positive control condition), 0.1 μg/ml recombinant thrombopoietin (TPO), 0.1 μg/ml TPO agonist eltrombopag (EP), or 0.1 μg/ml GCSF. Cell number (FIG. 12, top) or percent transgenic cells (FIG. 12, bottom) were quantified using flow cytometry at 7 days.

[1] = biological target: GCF receptor with a deletion at aa 715 (GCSFRd715) (UniProt Q99062); experiment: cell-based or functional assay
Chain of UniProt Q99062 (Q99062 25-738 limits assumed, stated change not applied): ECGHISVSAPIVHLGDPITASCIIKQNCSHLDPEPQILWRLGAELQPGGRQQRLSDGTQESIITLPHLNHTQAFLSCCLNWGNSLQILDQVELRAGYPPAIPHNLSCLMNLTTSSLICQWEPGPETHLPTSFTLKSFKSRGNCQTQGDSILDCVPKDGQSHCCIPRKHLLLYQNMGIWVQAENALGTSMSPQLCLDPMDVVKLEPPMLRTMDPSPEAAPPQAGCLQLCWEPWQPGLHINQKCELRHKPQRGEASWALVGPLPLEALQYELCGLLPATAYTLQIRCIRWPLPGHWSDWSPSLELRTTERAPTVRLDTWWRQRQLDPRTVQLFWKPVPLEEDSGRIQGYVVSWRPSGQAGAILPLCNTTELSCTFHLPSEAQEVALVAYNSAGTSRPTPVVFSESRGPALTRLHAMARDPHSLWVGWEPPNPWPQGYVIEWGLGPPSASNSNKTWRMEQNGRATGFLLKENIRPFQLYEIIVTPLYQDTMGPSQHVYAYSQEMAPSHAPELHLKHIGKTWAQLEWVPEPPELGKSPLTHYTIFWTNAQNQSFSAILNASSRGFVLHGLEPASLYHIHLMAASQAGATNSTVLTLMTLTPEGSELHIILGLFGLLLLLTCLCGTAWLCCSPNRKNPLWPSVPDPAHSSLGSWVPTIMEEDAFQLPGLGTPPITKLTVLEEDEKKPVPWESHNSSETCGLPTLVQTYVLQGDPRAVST

[2] = test system: T cells expressing the truncated NGFR; experiment: Stimulation of negative control T cells expressing truncated NGFR for 7 days; flow cytometry; format: cell-based, human; settings: 0.1 μg/ml
Method: as §1, §3

TPOR = experiment: Phosphorylation of STAT3 and STAT5 in TPOR expressing T cells after 24 hours stimulation, flow cytometry; format: cell-based, human; settings: 0.1 μg/ml
Method: (§4) FIG. 14: TPOR stimulation leads to activation of STAT3 and STAT5. Healthy donor T cells expressing TPOR or untransduced control T cells were stimulated for 24 hours with 5 ng/ml IL-2/IL-7/IL-15 (CK), 0.1 μg/ml TPO or 0.1 μg/ml Eltrombopag (EP). Following stimulation cells were fixed and the phosphorylation of STAT3 and STAT5 quantified using flow cytometry.
as §4, with “TPOR” for “FIG. 14: TPOR”, “stimulation led” for “stimulation leads”, “and STAT5 (FIG. 14).” for “and STAT5.”, “μg/ml TPO,” for “μg/ml TPO”

[3] = biological target: thrombopoietin receptor (TPOR) (UniProt P40238); experiment: cell-based or functional assay
[4] = test system: T cells expressing GCSFRd715; experiment: Stimulation of T cells expressing GCSFRd715 for 7 days; cell number and percent transgenic cells by flow cytometry; format: cell-based, human; settings: 0.1 μg/ml
Method: as §1, §2
Healthy donor T cells were transduced to express (i) the thrombopoietin receptor (TPOR) or (ii) the GCF receptor with a deletion at aa 715 (GCSFRd715). […] Cell number (FIG. 12, top) or percent transgenic cells (FIG. 12, bottom) were quantified using flow cytometry at 7 days.

G-CSFR = experiment: Enrichment of G-CSFR transgenic T cells upon administration of G-CSF; format: cell-based; settings: primary human T cells expressing G-CSFR
Excerpt: FIG. 7: Strong and specific enrichment of transgenic cells upon administration of G-CSF.
Ectopic expression of a myeloid cytokine receptor (G-CSFR) can be used to modulate CAR-T proliferation, and these T cells could then be inhibited by JAK2 inhibitors (e.g., FDA-approved JAK2 inhibitors such as ruxolitinib and others) (FIG. 6). […] The G-CSF receptor can be further modified to mediate downstream signaling that is normally associated with the T cell activating cytokine IL2 (chimeric G-CSF receptor) (FIG. 8). A pTRPE construct was used for the overexpression of G-CSFR IL2Rβ/IL2RG cytokine receptor (FIG. 9). The HEK IL2 Blue reporter cell line receptor (www.invivogen.com/hek-blue-il2) was used for screening the synthetic cytokine.

Molecule	TPOR fraction after addition of agonist (T cells expressing TPOR) [%]	Response of TPOR cells to stimulation (cell number) (T cells expressing TPOR)	Response of negative control cells (NGFR) to stimulation [2]	further results
CC1=NN(c2ccc(C)c(C)c2)C(=O)/C1=N\Nc1cccc(-c2cccc(C(=O)O)c2)c1O [EP, eltrombopag, reference compound]	55.9			
GCSF (from UniProt P09919 31-204) (ligand)				percent transgenic cells by flow cytometry after 7 days [1]: 64.9%
TPO: recombinant thrombopoietin	82	responded	did not respond	STAT5 and STAT3 phosphorylation in TPOR expressing T cells (TPOR): leads to STAT5 and STAT3 phosphorylation
recombinant thrombopoietin (TPO) (from UniProt P40225 22-353) (ligand)				percent transgenic cells by flow cytometry after 7 days [3]: 82%
B1		not	did not respond	Response of GCSFRd715 cells to stimulation (cell number) [4]: responded; GCSRFd715 transgenic cell fraction after addition of cytokine ([4]; enriched from 15.6% without addition): 64.9%; Enrichment of transgenic cells upon administration of G-CSF (G-CSFR): Strong enrichment

Source: patent US20250367288A1, “DELIVERY OF MULTI-CYTOKINE SIGNALS BY OVEREXPRESSION OF WILD-TYPE OR MUTANT SIGNAL TRANSDUCTION MOLECULES” (THE TRUSTEES OF THE UNIVERSITY OF PENNSYLVANIA, priority 2021, published 2025)
